Molecular target: human α-synuclein (human, UniProt P37840 1-140)
Assay: cell-based or functional assay

- lag phase of α-synuclein amyloid formation (ThT fluorescence, 70 μM α-synuclein, 37°C, agitation) at CsgE-to-α-synuclein molar ratios of 1-to-3, 1-to-10 and 1-to-100: 4 fold
B1: CsgE (natural protein)
chain: VEVEVPGLLTDHTVSSIGHDFYRAFSDKWESDYTGNLTINERPSARWGSWITITVNQDVIFQTFLFPLKRDFEKTVVFALIQTEEALNRRQINQALLSTGDLAHDEF
